Reference: the RNAGym collection of RNA variant scans (doi:10.7554/elife.90254)

B1: LINE1-full (parent)
chain: UACGUAGGUGGUUUUCCCCUGAUAGUGCUAAGGGGGCCUGGAAGUUUGGACUGGGCAGAGCUCAACACAGCGUGGCAAAGUGGCUGUGGCUAGACUGCCUCUCUGGAUUCCUCGUCACUCAGCAGGGCAUCUCUGAGAGAAAUGCC

Variants of: B1
Assay: self-cleavage, relative activity (ratio to wild type); higher = more cleavage; in vitro, sequencing; the parent is a self-cleaving ribozyme
For UACGUAGGUGGUUUUCCCCUGAUAGUGCUAAGGGGGCCUGGAAGUUUGGACUGGGCAGAGCUCAACACAGCGUGCCAAAGUGGCUGUGGCUAGACUGCCUCUCUGGAUUCCUCGUCACUCAGCAGGGCAUCUCUGAGAGAAGUGCC [G75C A142G], the self-cleavage was 0.85.
With UACGUAGGUGGUUUUCCCCUGAUAGUGCUAAGGGGGCCUGGAAGUUUGGACUGGGCAGAGCUCAGCACAGCGUGGCAAAGUGGCUGUGGCUAGACUGCCUCUCUGGAUUCCUCGUCACUCAGCAGGGCAUCUCUGAGUGAAAUGCC [A65G A138U] the self-cleavage was 0.08.
In the case of UACGUAGGUGGUUUUCCCCUGAUAGUGCUAAGCGGGCCUGGAAGUUUGGACUGGGCAGAGCUCAACACGGCGUGGCAAAGUGGCUGUGGCUAGACUGCCUCUCUGGAUUCCUCGUCACUCAGCAGGGCAUCUCUGAGAGAAAUGCC [G33C A69G], the self-cleavage is reported as 0.58.
Work on UACGUAGAUGGUUUUCCCCUGAUAGUGCUAAGGGGGCCUGGAAGUUUGGACUGGGCAGAGCUCAACACAGCGUGGCAAAGUAGCUGUGGCUAGACUGCCUCUCUGGAUUCCUCGUCACUCAGCAGGGCAUCUCUGAGAGAAAUGCC [G8A G82A] yielded a self-cleavage of 1.71.
UACGCAGGUGGUUUUCCCCUGAUAGUGCUAAGGGGGCCUGGAAGUUUGGACUGGGCAGAGCUCAACACAGCGUGGCGAAGUGGCUGUGGCUAGACUGCCUCUCUGGAUUCCUCGUCACUCAGCAGGGCAUCUCUGAGAGAAAUGCC [U5C A77G] showed a self-cleavage of 1.49.
UACGUAGGUGGUUUUCCCCAGAUAGUGCUAAGGGGGCCUGGAAGUUUGGACUGGGCAGAGCUCAACACAGCGCGGCAAAGUGGCUGUGGCUAGACUGCCUCUCUGGAUUCCUCGUCACUCAGCAGGGCAUCUCUGAGAGAAAUGCC [U20A U73C] gave a self-cleavage of 1.42.
UACGUAGGUGGUUUUCCCCUGAUAGUGCUAAGGGGGCCUGGAAGUUUGGACUGGGCAGAGCUCAACACAGCGUGGCAAAGUGGCUGUGGCUAGACUGCCUCUCUGGAUUCCUCGUCACUCUGCUGGGCAUCUCUGAGAGAAAUGCC [A121U A124U] gave a self-cleavage of 1.54.
Work on UACGUAGGUGGUUUUCCCCUGAUAGUGCUAAGGGGGCCUGGAAGUUUGGACUGGGCAGAGCUCAACACAGCGUGGCAAAGUGGCCGUGGCUAGACUGCCUCUCUGGAUUCCUCGUCACUCAGCAGGGCAUCUCUGAGAGAAGUGCC [U85C A142G] yielded a self-cleavage of 0.17.
UACGUAGGUAGUUUUCCCCUGAUAGUGCUAAGGGGGCCUGGAAGUUUGGACUGGGCAGAGCUCAUCACAGCGUGGCAAAGUGGCUGUGGCUAGACUGCCUCUCUGGAUUCCUCGUCACUCAGCAGGGCAUCUCUGAGAGAAAUGCC [G10A A65U] showed a self-cleavage of 0.14.
Variant UACGUAGGUGGUUUUCCCCUGAUAGUGCUAAGGGGGCCUGGAAGUUUGGACUGGGCAGAGCUCAACACAGCGUGGCAAAGUGGCUGUGGCUAGCCUGCCUCUCUGGAUUCCUCGUCCCUCAGCAGGGCAUCUCUGAGAGAAAUGCC [A94C A117C] has a self-cleavage of 0.07.
In the case of UACGUAGGUGGUUUUCCCCUGAUAGUGCUAAUGGGGCCUGGAAGUUUGGACUGGGCAGAGCUCAACACAGCGUGGCCAAGUGGCUGUGGCUAGACUGCCUCUCUGGAUUCCUCGUCACUCAGCAGGGCAUCUCUGAGAGAAAUGCC [G32U A77C], the self-cleavage is reported as 1.31.
UACGUAGGUGGUUUUCCCCUGAUAGUGCUAUGGGGGCCUGGAAGCUUGGACUGGGCAGAGCUCAACACAGCGUGGCAAAGUGGCUGUGGCUAGACUGCCUCUCUGGAUUCCUCGUCACUCAGCAGGGCAUCUCUGAGAGAAAUGCC [A31U U45C] gave a self-cleavage of 1.17.
In the case of UACGUAGGUGGUUUUCCCCUGAUAGUGCUAAGGGGGCCUGGAAGUUUGGACUGGGCAGAGCUCAACACAGCGUAGCAAAGUGGCUGAGGCUAGACUGCCUCUCUGGAUUCCUCGUCACUCAGCAGGGCAUCUCUGAGAGAAAUGCC [G74A U87A], the self-cleavage is reported as 0.07.
UACGUAGGUGGUUUUCCCCUGAUAGUGCUAAGGGGGCCUGGAAGAUUGGACUGGGCAGAGCUCAACACAGCGUGGCAAAGUGGCUGUGGCUAGUCUGCCUCUCUGGAUUCCUCGUCACUCAGCAGGGCAUCUCUGAGAGAAAUGCC [U45A A94U] showed a self-cleavage of 0.2.
UACGUAGGUGGUAUUCCCCUGAUAGUGCUAAGGGGGCCUGGAAGUUUGGACUGGGCAGAGCUCAACACAGCGUGGCAAAGUGGCUGUGGCUAGACUGCUUCUCUGGAUUCCUCGUCACUCAGCAGGGCAUCUCUGAGAGAAAUGCC [U13A C99U] gave a self-cleavage of 0.46.
UACGUAGGUGGUUUUCCCCUGAUAGUGCUAAGGGGGCCUGGAAGUUUGGACUGGGCAGAGCUCAACUCAGCGUGGCAAAGUGGCUGUGGCUAGACUGCCUCUCUGGAUUCCUCGUCACUCAGCAGGGCGUCUCUGAGAGAAAUGCC [A67U A129G] gave a self-cleavage of 0.08.
UACGUAGGUGGUUUUCCCCUGAUAGUGCUAAGGGGGCCUGGAAGUUUGGACUGGGCAGAGCUCAACACAGCGUGGAAAAGUGGCUGUGGCUAGACUGCCUCUCUGGAUUCCUCGUCACUCAGCAGGGCAUCUCUGAGAGAGAUGCC [C76A A141G] showed a self-cleavage of 2.26.
Variant UACGUAGGUGGUUUUCCCCUGAUAGUGCUAAGGGGGCCUGGAAGUUUGGACUGGGCAGAGCUCAACACAGCGUGGCAAAGUGGCUGUGGCUAGACUGCCUCUCUGGAUACCUCGUCACCCAGCAGGGCAUCUCUGAGAGAAAUGCC [U109A U119C] has a self-cleavage of 1.95.
UACGUAGGUGGUUUUCCCCUGAUAGUGCUAAGGGGGCCUGGAAGGUUGGACUGGGCAGAGCUCAACACAGCGUGGCAAAGUGGCUGUGGCUAGACUGCCUCACUGGAUUCCUCGUCACUCAGCAGGGCAUCUCUGAGAGAAAUGCC [U45G U102A] gave a self-cleavage of 1.73.
With CACGUAGGUGGUUUUCCCCUGAUAGUGCUAAGGGGGCCUGGAAGUUUGGACUGGGCAGAGCUCAACACAGCGUGGCAAAGUGACUGUGGCUAGACUGCCUCUCUGGAUUCCUCGUCACUCAGCAGGGCAUCUCUGAGAGAAAUGCC [U1C G83A] the self-cleavage was 0.74.
For UACGUAGGUGGUUUUCCCCUGGUAGUGCUAAGGGGGCCUGGAAGUUUGGACUGGGCAGAGCUCAACACAGCGUGGCAAAGUGGCUAUGGCUAGACUGCCUCUCUGGAUUCCUCGUCACUCAGCAGGGCAUCUCUGAGAGAAAUGCC [A22G G86A], the self-cleavage was 0.07.
For UACGUAGGUGGUUUUCCCCUGAUAGUGCUAAGGGGGCCUGGAAGUUUGGACUGGGCAGAGCUCAACACAGCGUGGCAAAGUGGCUGUGGCUAGACUGCCUCUCUGGAUUCCUCGUAACUCAGCAGGGCAUCUCUGAGGGAAAUGCC [C116A A138G], the self-cleavage was 1.52.
UACGUAGGUGGUUUUCCCCUGAUAGUGCUAAGGGGGCCUGGAAGUUUGGACUGGGCAGAGCCCAACACAGCGUGGCUAAGUGGCUGUGGCUAGACUGCCUCUCUGGAUUCCUCGUCACUCAGCAGGGCAUCUCUGAGAGAAAUGCC [U62C A77U] showed a self-cleavage of 0.03.
UACGUAGGUGGUUCUCCCCGGAUAGUGCUAAGGGGGCCUGGAAGUUUGGACUGGGCAGAGCUCAACACAGCGUGGCAAAGUGGCUGUGGCUAGACUGCCUCUCUGGAUUCCUCGUCACUCAGCAGGGCAUCUCUGAGAGAAAUGCC [U14C U20G] gave a self-cleavage of 0.9.
In the case of UACGUAGGUGGUUUUCCCCUGAUAGUGCUAAGGGGGCCUGGAGGUUUGGACUGGGCAGAGCUCAACACAGCGUGGCAAAGUGGCUGUGGCUAGACUGCCUCUCUGGAUUCCUCGUCACUCAGCAGUGCAUCUCUGAGAGAAAUGCC [A43G G126U], the self-cleavage is reported as 1.28.
UACGUAGGUGGUUUUCCCCUGAUAGUACUAAGGGGGCCUGGAAGUUUGGACUGGGCAGAGCUCAACACAGCGUGGCAAAGCGGCUGUGGCUAGACUGCCUCUCUGGAUUCCUCGUCACUCAGCAGGGCAUCUCUGAGAGAAAUGCC [G27A U81C] gave a self-cleavage of 0.8.
With UACGUAGGUGGUUUUCCCCUGAUAGUGCUAAGGGGGCCUGGAAGUUUGGACUGGGCAGAGCUCAACACAGCGCGGCAAAGUGGCUGUGGCUAGACUGCCUCUCUGGAUUCCUCGUCACUCAGCAGGGCAUCUCUAAGAGAAAUGCC [U73C G135A] the self-cleavage was 1.07.
UACGUAGGUGGUUUUCCCCUGAUAGUGCUAAGGGGGCCUGGAAGUUUGGACUGGGCAGAGCUCAACACAGCGUGGUAAAGUGGCUGUGGCUAGACUGCCUCUCUGGAUUCCUCGUCACUCAGCAGGGCACCUCUGAGAGAAAUGCC [C76U U130C] gave a self-cleavage of 2.22.
Variant UACGUAGGUGGUUUUCCCCUGACAGUGCUAAGGGGGCCUGGAAGUUUGGACUGGGCAGAGCUCAACACAGCGUGGCAAGGUGGCUGUGGCUAGACUGCCUCUCUGGAUUCCUCGUCACUCAGCAGGGCAUCUCUGAGAGAAAUGCC [U23C A79G] has a self-cleavage of 1.4.
With UACGUAGGUGGUUUUCCCCUGAUAGUGCUAAGGGGGCCUGGAAGUUUGGACUGGGCAGAGCUCAACACAGCGUGGCGAAGUGGCUGUGGCUAGACUGCCUCUAUGGAUUCCUCGUCACUCAGCAGGGCAUCUCUGAGAGAAAUGCC [A77G C103A] the self-cleavage was 2.24.
In the case of UACGUAGGUGGUUUUCCCUUGAUAGUGCUAAGGGGGCCUGGAAGUUUGGACUGGGCAGAGCUCAACACAGCGUGGCAAAGUGGCUGUGGCUAGACUGCCUCUCUGGUUUCCUCGUCACUCAGCAGGGCAUCUCUGAGAGAAAUGCC [C19U A107U], the self-cleavage is reported as 1.5.
UACGUAGGUGGUUUUCCCCUGAUAGUGCUAAGGGGGCCUGGAAGUUUGGACUGGGCAGAGCUCAACACAGCGUGGUAAAGUGGCUGUGGCUAGACUGCCUAUCUGGAUUCCUCGUCACUCAGCAGGGCAUCUCUGAGAGAAAUGCC [C76U C101A] showed a self-cleavage of 1.6.
UACGUAGGUGGUUUUCCCCUGAUAGUGCUAAGGGGGCCUGGAAGUCUGGACUGGGCAGAGCUCAACACAGCGUGGCAAAGUGGCUGUGGCUAGACUGCCUCUCUGGAUUCCUCGUCACUCAGCAGGGCAUCUUUGAGAGAAAUGCC [U46C C133U] gave a self-cleavage of 1.13.
UACGUAGGUGGUUUCCCCCUGAUAGUGCUAAGGGGGCCUGGGAGUUUGGACUGGGCAGAGCUCAACACAGCGUGGCAAAGUGGCUGUGGCUAGACUGCCUCUCUGGAUUCCUCGUCACUCAGCAGGGCAUCUCUGAGAGAAAUGCC [U15C A42G] gave a self-cleavage of 1.43.
For UACGUAGGUGGUUUUCCCCUGAUAGUGCUAAGGGGGCCUGGAAGUUUGGACUGGGCAGAGCACAACACAGCGUGGCAAAGUGGCUGUGGCUAGACUGCCUCUCUGGAUUCCUCGUCACUCAGCAGGGCAUCUCUGAGAGAAGUGCC [U62A A142G], the self-cleavage was 0.02.
UACGUAGGUGGUUUUCCCCUGAUAGAGCUAAGGGGGCCUGGAAGUUUGGACUGGGCAGAGCUCAACACAGCGUGGCAAAGUGGCUGUGGCUAGACUGCCUCUCUGGAUUCCCCGUCACUCAGCAGGGCAUCUCUGAGAGAAAUGCC [U26A U112C] showed a self-cleavage of 1.18.
UACGUAGGUGGAUUUCCCCUGAUAGUGCUAAGGGGGCCUGGAAGUUUGGACUGGGCAGAGCUCAACACAGCGUGGCAAAGUGGCUGUGGCUAGACUGCCUCUCUGGAUUCCUCGUCACUCAGCAGGGCAUCCCUGAGAGAAAUGCC [U12A U132C] gave a self-cleavage of 1.41.
For UACGUAGGUGGUUUUCCCCUGAUAGUGCUAAAGGGGCCUGGAAGUUUGGACUGGGCAGAGCUCAACACAGCGCGGCAAAGUGGCUGUGGCUAGACUGCCUCUCUGGAUUCCUCGUCACUCAGCAGGGCAUCUCUGAGAGAAAUGCC [G32A U73C], the self-cleavage was 1.49.
For UACGUAGGUGGUUUCCCCCUGAUAGUGCUAAGGGGGCCUGGAAGUUUAGACUGGGCAGAGCUCAACACAGCGUGGCAAAGUGGCUGUGGCUAGACUGCCUCUCUGGAUUCCUCGUCACUCAGCAGGGCAUCUCUGAGAGAAAUGCC [U15C G48A], the self-cleavage was 1.41.
